Laboratory results as given in patent US20160199473A1 (Johns Hopkins, published 2016).

B1: PSCA (109-117) peptide LLPALGLLL (peptide)
peptide: LLPALGLLL
notes: Synthetic nonamer from prostate stem cell antigen; also called PSCA A3(109-117); PSCA A24(109-117)
B2: PSCA (99-107) peptide ALQPAAAIL (peptide)
peptide: ALQPAAAIL
notes: Synthetic nonamer from prostate stem cell antigen; also called PSCA A3(99-107); PSCA A24(99-107)
B3: PSCA (5-13) peptide LLALLMAGL (peptide)
peptide: LLALLMAGL
notes: Synthetic nonamer from prostate stem cell antigen; also called PSCA A2(5-13); PSCA A3(5-13)
B4: PSCA (20-28) peptide ALLCYSCKA (peptide)
peptide: ALLCYSCKA
notes: Synthetic nonamer from prostate stem cell antigen; also called PSCA A3(20-28); PSCA A320-28
B5: PSCA (43-51) peptide QLGEQCWTA (peptide)
peptide: QLGEQCWTA
notes: Synthetic nonamer from prostate stem cell antigen; also called PSCA A3(43-51); PSCA A243-51
B6: PSCA (14-22) peptide ALQPGTALL (peptide)
peptide: ALQPGTALL
notes: Synthetic nonamer from prostate stem cell antigen; also called PSCA A2(14-22); PSCA A3(14-22)
B7: Mesothelin A2(530-538) (peptide)
peptide: VLPLTVAEV
notes: Synthetic nonamer from mesothelin; legends print the position as 530-539; also called Mesothelin A2530-539; MesoA2(530-539)
B8: Mesothelin A3(83-92) (peptide)
peptide: ELAVALAQK
notes: Synthetic nonamer from mesothelin; printed range spans ten positions; also called MesoA3(83-92)
B9: Mesothelin A3(225-234) (peptide)
peptide: ALQGGGPPY
notes: Synthetic nonamer from mesothelin; printed range spans ten positions; also called MesoA3(225-234)
B10: Mesothelin A1309-318 binding epitope (EIDESLIFY) (peptide)
peptide: EIDESLIFY
notes: also called Mesothelin A1309-318 peptide
B11: Mesothelin A2(20-28) (peptide)
peptide: SLLFLLFSL
notes: Synthetic nonamer from mesothelin; legends print the position as 20-29; also called Mesothelin A220-29; MesoA2(20-29)
B12: PSCA (108-116) peptide ALLPALGLL (peptide)
peptide: ALLPALGLL
notes: Synthetic nonamer from prostate stem cell antigen; also called PSCA A2(108-116); PSCA A24(108-116)

molecular target: T1, HLA-A3 (HLA-A301 allele) on T2-A3 cells (human); assay: T2 binding assay, flow cytometry with GAPA3 (FIG. 1E)
T1 construct: whole, on cells; MHC class I molecule on the surface of T2-A3 cells
From the text: (§1) Peptide pulsed cells were stained with an unlabeled mouse anti-HLA class I molecule monoclonal antibody W6/32 and a goat-anti-mouse FITC-labeled IgG2a secondary antibody. FIG. 1E. T2 cells genetically modified to express A3 and pulsed with either: Mesothelin A1309-318 binding peptide (green line), PSCA A399-107 (pink line), A35-13 (blue line), A314-22 (orange line), A3109-117 (purple line), A343-51 (red line), and PSCA A320-28 (yellow line). Peptide pulsed cells were stained with an unlabeled mouse anti-human HLA-A3 specific monoclonal antibody GAPA3 and a FITC-labeled IgG2a secondary antibody. FIG. 1F. T2 cells genetically modified to express A24 and pulsed with either: Mesothelin A1309-318 peptide (green line), PSCA A2476-84 (pink line), PSCA A24108-116 (blue line), PSCA A2499-107 (orange line), PSCA A24109-117 (purple line), and PSCA A2477-85 (red line). Peptide pulsed cells were stained with an unlabeled pan-HLA antibody W6/32 and a FITC-labeled IgG2a secondary antibody.
(§2) Binding of these epitopes to their respective HLA class I molecule was tested by pulsing TAP deficient T2 cells that expressed the corresponding HLA class I molecule (T2-A2, T2-A3, or T2-A24 cells). […] Binding of T2 cells pulsed with two candidate mesothelin derived HLA-A3 and two candidate HLA-A24 epitopes are shown in FIG. 1B and FIG. 1C, respectively. A similar binding experiment was done with the PSCA derived peptides for HLA-A2, HLA-A3, and HLA-A24. (FIG. 1D, FIG. 1E and FIG. 1F).
(§3) Materials and Methods: Peptide/MHC binding Assays. T2 cells expressing the HLA molecule of interest were resuspended in AimV serum free media (Gibco) to a concentration of 2.5×10⁵ cells/ml and pulsed with 100-200 micrograms of peptide at room temperature overnight. Pulsing at room temperature allows for optimizing the number of empty HLA molecules available for binding each epitope (30). The cells were washed and resuspended at 1×10⁵ cells/ml. Peptide binding was determined by FACS (Beckon Dickenson, San Jose, Calif.) analysis.

Row | Binder | binding result
1 | B1 | binds
2 | B2 | binds
3 | B3 | binds
4 | B4 | binds
5 | B5 | binds
6 | B6 | binds

molecular target: T2, HLA-A2 (HLA-A*0201 allele) on T2 cells (human); assay: T2 binding assay, flow cytometry with W6/32 (FIG. 1A)
T2 construct: whole, on cells; MHC class I molecule on the surface of T2 cells; also called T2-A2 cells
From the text: as §1
(§4) Binding of these epitopes to their respective HLA class I molecule was tested by pulsing TAP deficient T2 cells that expressed the corresponding HLA class I molecule (T2-A2, T2-A3, or T2-A24 cells). […]
(§5) Materials and Methods: Peptide/MHC binding Assays. […] Peptide binding was determined by FACS (Beckon Dickenson, San Jose, Calif.) analysis.

Row | Binder | binding result
7 | B7 | binds

molecular target: T1, HLA-A3 (HLA-A301 allele) on T2-A3 cells; assay: T2 binding assay, flow cytometry with GAPA3 (FIG. 1B)
From the text: as §1, §4, §5

Row | Binder | binding result
8 | B8 | binds
9 | B9 | binds

molecular target: T2, HLA-A2 (HLA-A*0201 allele) on T2 cells; assay: T2 peptide/MHC binding assay, flow cytometry with W6/32
From the text: as §1, §4, §5

Row | Binder | binding result
10 | B10 | no binding
11 | B11 | binds

molecular target: T2, HLA-A2 (HLA-A*0201 allele) on T2 cells; assay: T2 binding assay, flow cytometry with W6/32 (FIG. 1D)
From the text: as §1, §2, §3

Row | Binder | binding result
12 | B3 | binds
13 | B5 | binds
14 | B12 | binds
15 | B6 | binds
